According to patent publication US20160053025A1 (SAMSUNG ELECTRONICS, published 2016):

Tests used:
Experiment in all cases: ELISA, antibody coated, FLAG-tagged mutant Ang2 RBD detected with anti-FLAG-HRP
[1] = target: T1, Ang2 RBD Q418A, FLAG-tagged (human, UniProt O15123 281-496, limits assumed)
T1 chain: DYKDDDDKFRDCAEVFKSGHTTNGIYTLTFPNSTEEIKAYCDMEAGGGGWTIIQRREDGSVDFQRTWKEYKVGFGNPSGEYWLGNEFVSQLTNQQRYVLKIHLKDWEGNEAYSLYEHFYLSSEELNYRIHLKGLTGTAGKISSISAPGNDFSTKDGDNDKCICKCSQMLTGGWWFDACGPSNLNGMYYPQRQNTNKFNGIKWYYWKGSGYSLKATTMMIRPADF
Experimental: (§1) To verify the epitope (or specific binding site) of the anti-Ang2 antibody prepared in Reference Example 2.3, an ELISA was performed using a recombinant protein where a receptor binding domain (RBD) of Ang2 protein in the form of being tagged with Flag was mutated by artificial means.
(§2) Each well of a 96-well MaxiSorp™ flat-bottom plate (Nunc) was coated with 50 ul (microliter) of 1000 nM antibody. Then, the plate was washed five times with 0.05% (v/v) Tween-20-containing PBS (PBST) and blocked with 1% (v/v) BSA-containing PBS at a room temperature for 2 hours. 250 ng of each mutant Ang2 protein obtained by substituting S417, Q418, P419, N421, 1434, D448, A449, P452, Y460, N467, K468, or F469 residue of Ang2 protein tagged with a FLAG sequence ([…], Sigma) at its N-terminal with alanine was added to each well of the plate, which was then allowed to react at a room temperature for 2 hours.
(§3) Finally, 50 ul of TMB substrates (Cell signaling) was added to each well of the plate to induce color development at a room temperature for 3 min. and the reaction was ceased by the addition of 50 ul of Stop solution (Cell signaling) and then, OD450 values were measured on a plate reader (Molecular Devices). By comparing binding affinities with mutated Ang2 to those of unmutated Ang2, each epitope of Ang2 antibodies was identified. The obtained measurement results of the binding affinities (%) with mutant Ang2 against the binding affinity with the native Ang2 are shown in the following Table 13.

[2] = target: T2, Ang2 RBD S417A, FLAG-tagged (human, UniProt O15123 281-496, limits assumed)
T2 chain: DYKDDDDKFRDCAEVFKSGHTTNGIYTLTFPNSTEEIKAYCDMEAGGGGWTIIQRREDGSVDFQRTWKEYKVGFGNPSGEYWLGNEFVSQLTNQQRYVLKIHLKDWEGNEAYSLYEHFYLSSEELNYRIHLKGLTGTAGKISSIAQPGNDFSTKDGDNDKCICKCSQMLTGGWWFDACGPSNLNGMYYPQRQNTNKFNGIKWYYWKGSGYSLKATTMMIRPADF
Experimental: as §1, §2, §3

[3] = target: T3, Ang2 RBD F469A, FLAG-tagged (human, UniProt O15123 281-496, limits assumed)
T3 chain: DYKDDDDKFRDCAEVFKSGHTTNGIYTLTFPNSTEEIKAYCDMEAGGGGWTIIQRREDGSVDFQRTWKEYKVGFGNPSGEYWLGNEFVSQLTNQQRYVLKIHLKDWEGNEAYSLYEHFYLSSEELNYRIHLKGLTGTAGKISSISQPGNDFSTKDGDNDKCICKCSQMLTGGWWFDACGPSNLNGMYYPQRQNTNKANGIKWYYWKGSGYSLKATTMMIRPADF
Experimental: as §1, §2, §3

[4] = target: T4, Ang2 RBD D448A, FLAG-tagged (human, UniProt O15123 281-496, limits assumed)
T4 chain: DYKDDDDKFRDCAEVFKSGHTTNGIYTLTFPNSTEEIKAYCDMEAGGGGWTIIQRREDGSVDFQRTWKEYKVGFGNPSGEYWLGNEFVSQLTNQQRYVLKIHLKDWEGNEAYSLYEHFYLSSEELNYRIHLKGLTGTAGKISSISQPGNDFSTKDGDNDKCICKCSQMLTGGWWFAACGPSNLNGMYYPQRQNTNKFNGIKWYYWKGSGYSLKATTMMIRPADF
Experimental: as §1, §2, §3

[5] = target: T5, Ang2 RBD K468A, FLAG-tagged (human, UniProt O15123 281-496, limits assumed)
T5 chain: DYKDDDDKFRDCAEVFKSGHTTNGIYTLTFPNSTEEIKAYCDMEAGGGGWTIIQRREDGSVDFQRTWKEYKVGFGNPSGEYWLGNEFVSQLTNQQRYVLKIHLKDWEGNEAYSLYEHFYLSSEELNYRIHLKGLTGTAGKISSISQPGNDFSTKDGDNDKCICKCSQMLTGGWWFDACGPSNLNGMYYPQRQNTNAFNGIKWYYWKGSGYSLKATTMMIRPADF
Experimental: as §1, §2, §3

[6] = target: T6, Ang2 RBD Y460A, FLAG-tagged (human, UniProt O15123 281-496, limits assumed)
T6 chain: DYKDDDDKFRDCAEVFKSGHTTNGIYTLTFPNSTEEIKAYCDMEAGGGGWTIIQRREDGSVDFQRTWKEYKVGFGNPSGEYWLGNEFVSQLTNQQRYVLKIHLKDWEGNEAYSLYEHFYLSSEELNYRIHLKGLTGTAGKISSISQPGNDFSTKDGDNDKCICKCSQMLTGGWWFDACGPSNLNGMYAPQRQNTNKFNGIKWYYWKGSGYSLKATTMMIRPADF
Experimental: as §1, §2, §3

[7] = target: T7, Ang2 RBD P419A, FLAG-tagged (human, UniProt O15123 281-496, limits assumed)
T7 chain: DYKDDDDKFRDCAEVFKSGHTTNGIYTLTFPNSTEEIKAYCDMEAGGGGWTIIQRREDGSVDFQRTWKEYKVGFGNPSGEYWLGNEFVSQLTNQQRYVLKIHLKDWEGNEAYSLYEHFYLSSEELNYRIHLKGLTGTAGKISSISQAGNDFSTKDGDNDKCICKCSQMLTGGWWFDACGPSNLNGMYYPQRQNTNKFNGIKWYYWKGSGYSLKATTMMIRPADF
Experimental: as §1, §2, §3

- binding affinity (%) with mutant Ang2 against the binding affinity with the native Ang2 [1]: 38.9%
- binding affinity (%) with mutant Ang2 against the binding affinity with the native Ang2 [2]: 101%
- binding affinity (%) with mutant Ang2 against the binding affinity with the native Ang2 [3]: 109%
- binding affinity (%) with mutant Ang2 against the binding affinity with the native Ang2 [4]: 105%
- binding affinity (%) with mutant Ang2 against the binding affinity with the native Ang2 [5]: 110%
- binding affinity (%) with mutant Ang2 against the binding affinity with the native Ang2 [6]: 103%
- binding affinity (%) with mutant Ang2 against the binding affinity with the native Ang2 [7]: 41.1%
B1: SAIT-ANG2-AB-m10D6 (antibody, V domains shown)
VH: DVQLQESGPDLVKPSQSLSLTCTVTGYSITSDYAWNWIRQFPGNKLEWMGYINYSGNTDYNPSLKSRSSITRDTSKNQFFLQLNSVTTGDTATYYCARGNFEGAMDYWGQGTSVTVSS
VL: SIVMTQTPKFLLVSAGDRVTITCKASQSVSNDVAWYQQKPGQSPKLLIYYASNRYPGVPDRFTGSGYGTDFTFTISTVQAEDLAVYFCQQDYSSPWTFGGGTKLEIK
notes: Mouse monoclonal antibody purified from a hybridoma (KCLRF-BP-00295); it is not applied here; also called mouse antibody 10D6; 10D6 antibody
